Results published in PMC11578312, “Proximity‐Unlocked Luminescence by Sequential Enzymatic Reactions from Antibody and Antibody/Aptamer (PULSERAA): A Platform for Detection and Visualization of Virus‐Containing Spots”.

T1: myoglobin (Mb) (UniProt P02144 2-154)
T1 sequence: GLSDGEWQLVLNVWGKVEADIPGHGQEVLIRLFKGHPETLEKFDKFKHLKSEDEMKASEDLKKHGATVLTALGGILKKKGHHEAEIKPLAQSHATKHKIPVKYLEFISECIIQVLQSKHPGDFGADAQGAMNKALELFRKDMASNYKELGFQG


Experiments:
myoglobin (Mb) [1] = biological target: T1, myoglobin (Mb); experiment: dot blot (aptamer blotting); folded in 10 mM K acetate pH 5.0; dot blot: 10 mM sodium phosphate pH 7.0, 10 mM KCl, 0.05% Tween-20, 100 nM oligonucleotide, 25 C, 1 h (block 2% BSA); ELONA: 500 nM aptamer, 25 C, 1 h, TBS-T wash; settings: protein: commercial; label: 3'-biotinylated oligonucleotide mixed; mixed or hybrid (3+1) G4 at pH 5.0
myoglobin (Mb) [2] = biological target: T1, myoglobin (Mb); experiment: dot blot (aptamer blotting); folded in 10 mM K acetate pH 5.0; higher signal than N2 at low Mb; dot blot: 10 mM sodium phosphate pH 7.0, 10 mM KCl, 0.05% Tween-20, 100 nM oligonucleotide, 25 C, 1 h (block 2% BSA); ELONA: 500 nM aptamer, 25 C, 1 h, TBS-T wash; settings: protein: commercial; label: 3'-biotinylated oligonucleotide mixed; parallel G4 at pH 7.0 with 10 mM Na+ and 10 mM K+

Binder | binding result (myoglobin (Mb) [1]) | binding result (myoglobin (Mb) [2])
GGGGCTGCTCGGGATTGCGGATATGGTTTGGGCGGGTTGGGCTGGG (structured_DNA) [RBD-46–PEA3-01] | binds | 
GGGCGGGTTGGGCTGGGTTTGGGGCTGCTCGGGATTGCGGATATGG (structured_DNA) [PEA3-01–RBD-46] |  | binds
